How the values were obtained:
Experiment in all cases: PEPSCAN ELISA, looped peptide, antibody 10 µg/ml
[1] = target: looped/cyclic peptide … (rabies virus strain ERA)
[2] = target: looped/cyclic peptide … (rabies virus strain ERA); remark: listed apart in the source
[3] = target: looped/cyclic peptide … (rabies virus strain ERA); remark: listed apart in the source
[4] = target: looped/cyclic peptide … (rabies virus strain ERA); remark: listed apart in the source
[5] = target: looped/cyclic peptide … (rabies virus strain ERA); remark: listed apart in the source
[6] = target: looped/cyclic peptide … (rabies virus strain ERA); remark: listed apart in the source
[7] = target: looped/cyclic peptide … (rabies virus strain ERA); remark: listed apart in the source
[8] = target: looped/cyclic peptide … (rabies virus strain ERA); remark: listed apart in the source
[9] = target: looped/cyclic peptide … (rabies virus strain ERA); remark: listed apart in the source
[10] = target: looped/cyclic peptide … (rabies virus strain ERA); remark: listed apart in the source
[11] = target: looped/cyclic peptide … (rabies virus strain ERA); remark: listed apart in the source
[12] = target: looped/cyclic peptide … (rabies virus strain ERA); remark: listed apart in the source
[13] = target: looped/cyclic peptide … (rabies virus strain ERA); remark: listed apart in the source
[14] = target: looped/cyclic peptide … (rabies virus strain ERA); remark: listed apart in the source
[15] = target: looped/cyclic peptide … (rabies virus strain ERA); remark: listed apart in the source
[16] = target: looped/cyclic peptide … (rabies virus strain ERA); remark: listed apart in the source
[17] = target: looped/cyclic peptide … (rabies virus strain ERA); remark: listed apart in the source
[18] = target: looped/cyclic peptide … (rabies virus strain ERA); remark: listed apart in the source
[19] = target: looped/cyclic peptide … (rabies virus strain ERA); remark: listed apart in the source
[20] = target: looped/cyclic peptide … (rabies virus strain ERA); remark: listed apart in the source
[21] = target: looped/cyclic peptide … (rabies virus strain ERA); remark: listed apart in the source
[22] = target: looped/cyclic peptide … (rabies virus strain ERA); remark: listed apart in the source
[23] = target: looped/cyclic peptide … (rabies virus strain ERA); remark: listed apart in the source
[24] = target: looped/cyclic peptide … (rabies virus strain ERA); remark: listed apart in the source
[25] = target: looped/cyclic peptide … (rabies virus strain ERA); remark: listed apart in the source
[26] = target: looped/cyclic peptide … (rabies virus strain ERA); remark: listed apart in the source
[27] = target: looped/cyclic peptide … (rabies virus strain ERA); remark: listed apart in the source
[28] = target: looped/cyclic peptide … (rabies virus strain ERA); remark: listed apart in the source
[29] = target: looped/cyclic peptide … (rabies virus strain ERA); remark: listed apart in the source
[30] = target: looped/cyclic peptide … (rabies virus strain ERA); remark: listed apart in the source
[31] = target: looped/cyclic peptide … (rabies virus strain ERA); remark: listed apart in the source
[32] = target: looped/cyclic peptide … (rabies virus strain ERA); remark: listed apart in the source
[33] = target: looped/cyclic peptide … (rabies virus strain ERA); remark: listed apart in the source
[34] = target: looped/cyclic peptide … (rabies virus strain ERA); remark: listed apart in the source
[35] = target: looped/cyclic peptide … (rabies virus strain ERA); remark: listed apart in the source
[36] = target: looped/cyclic peptide … (rabies virus strain ERA); remark: listed apart in the source
[37] = target: looped/cyclic peptide … (rabies virus strain ERA); remark: listed apart in the source
[38] = target: looped/cyclic peptide … (rabies virus strain ERA); remark: listed apart in the source
[39] = target: looped/cyclic peptide … (rabies virus strain ERA); remark: listed apart in the source
[40] = target: looped/cyclic peptide … (rabies virus strain ERA); remark: listed apart in the source
[41] = target: looped/cyclic peptide … (rabies virus strain ERA); remark: listed apart in the source
[42] = target: looped/cyclic peptide … (rabies virus strain ERA); remark: listed apart in the source
[43] = target: looped/cyclic peptide … (rabies virus strain ERA); remark: listed apart in the source
[44] = target: looped/cyclic peptide … (rabies virus strain ERA); remark: listed apart in the source
[45] = target: looped/cyclic peptide … (rabies virus strain ERA); remark: listed apart in the source
[46] = target: looped/cyclic peptide … (rabies virus strain ERA); remark: listed apart in the source
[47] = target: looped/cyclic peptide … (rabies virus strain ERA); remark: listed apart in the source
[48] = target: looped/cyclic peptide … (rabies virus strain ERA); remark: listed apart in the source
[49] = target: looped/cyclic peptide … (rabies virus strain ERA); remark: listed apart in the source
[50] = target: looped/cyclic peptide … (rabies virus strain ERA); remark: listed apart in the source
[51] = target: looped/cyclic peptide … (rabies virus strain ERA); remark: listed apart in the source
[52] = target: looped/cyclic peptide … (rabies virus strain ERA); remark: listed apart in the source
[53] = target: looped/cyclic peptide … (rabies virus strain ERA); remark: listed apart in the source
[54] = target: looped/cyclic peptide … (rabies virus strain ERA); remark: listed apart in the source
[55] = target: looped/cyclic peptide … (rabies virus strain ERA); remark: listed apart in the source
[56] = target: looped/cyclic peptide … (rabies virus strain ERA); remark: listed apart in the source
[57] = target: looped/cyclic peptide … (rabies virus strain ERA); remark: listed apart in the source
[58] = target: looped/cyclic peptide … (rabies virus strain ERA); remark: listed apart in the source
[59] = target: looped/cyclic peptide … (rabies virus strain ERA); remark: listed apart in the source
[60] = target: looped/cyclic peptide … (rabies virus strain ERA); remark: listed apart in the source
[61] = target: looped/cyclic peptide … (rabies virus strain ERA); remark: listed apart in the source

B1: human monoclonal antibody CRJA (antibody, V domains shown)
VH: EVQLLESGGGLVQPGGSLRLSCAASGFTFSNYAMSWVRQAPGKGLEWVSAISASGHSTYLADSVKGRFTISRDNSKNTLYLQMNSLRAEDTAVYYCAKDREVTMIVVLNGGFDYWGQGTRVTVSS
VL: EIVLTQSPATLSLSPGERATLACRASQTASRYLAWYQQKPGQAPRLLIYDTSNRATGIPARFSGSGSGTDFTLSISSLEPEDFAVYYCQQRFNWPWTFGQGTKVEFK
B1 was tested, and the OD value [1] was 90 OD, the OD value [2] was 78 OD and the OD value [3] was 104 OD. For the same binder, the OD value [4] was 88 OD, the OD value [5] was 93 OD and the OD value [6] was 98 OD. It also gave an OD value [7] of 58 OD, an OD value [8] of 46 OD and an OD value [9] of 89 OD. For the same binder, the OD value [10] was 38 OD, the OD value [11] was 89 OD and the OD value [12] was 88 OD. The OD value [13] was 71 OD, the OD value [14] was 79 OD and the OD value [15] was 71 OD. It also gave an OD value [16] of 108 OD, an OD value [17] of 87 OD and an OD value [18] of 89 OD. For the same binder, the OD value [19] was 54 OD, the OD value [20] was 78 OD and the OD value [21] was 90 OD. For the same binder, the OD value [22] was 96 OD, the OD value [23] was 112 OD and the OD value [24] was 82 OD. The OD value [25] was 86 OD, the OD value [26] was 96 OD and the OD value [27] was 100 OD. It also gave an OD value [28] of 105 OD, an OD value [29] of 78 OD and an OD value [30] of 125 OD. It also gave an OD value [31] of 38 OD, an OD value [32] of 92 OD and an OD value [33] of 83 OD. It also gave an OD value [34] of 83 OD, an OD value [35] of 88 OD and an OD value [36] of 96 OD. The OD value [37] was 54 OD, the OD value [38] was 96 OD and the OD value [39] was 72 OD. For the same binder, the OD value [40] was 82 OD, the OD value [41] was 123 OD and the OD value [42] was 69 OD. For the same binder, the OD value [43] was 113 OD, the OD value [44] was 57 OD and the OD value [45] was 86 OD. The OD value [46] was 96 OD, the OD value [47] was 46 OD and the OD value [48] was 89 OD. It also gave an OD value [49] of 51 OD, an OD value [50] of 62 OD and an OD value [51] of 93 OD. For the same binder, the OD value [52] was 90 OD, the OD value [53] was 86 OD and the OD value [54] was 78 OD. The OD value [55] was 96 OD, the OD value [56] was 92 OD and the OD value [57] was 92 OD. The OD value [58] was 71 OD, the OD value [59] was 86 OD and the OD value [60] was 86 OD. It also gave an OD value [61] of 100 OD.
